Test results: patent US8257698B2, “Protein engineering of monoacylglycerol lipase (MGLL)” (Janssen Pharmaceutica N.V., priority 2008, dated 2012)
Residue numbers refer to the chain shown, from its start. Numbers in names are those of the source.

B1: mut-MGLL 9-297, L169S, L176S: engineered form of human MGLL, cap mutations plus truncation (protein, UniProt Q99685 9-297, looked up, variant L169S L176S)
chain: RTPQSIPYQDLPHLVNADGQYLFCRYWKPTGTPKALIFVSHGAGEHSGRYEELARMLMGLDLLVFAHDHVGHGQSEGERMVVSDFHVFVRDVLQHVDSMQKDYPGLPVFLLGHSMGGAIAILTAAERPGHFAGMVLISPLVLANPESATTFKVLAAKVLNSVLPNLSSGPIDSSVLSRNKTEVDIYNSDPLICRAGLKVCFGIQLLNAVSRVERALPKLTVPFLLLQGSADRLCDSKGAYLLMELAKSQDKTLKIYEGAYHVLHKELPEVTNSVFHEINMWVSQRTATA
B2: wt-MGLL.1-303: wild-type human MGLL isoform 2 amino acids 1-303 with N-terminal His tag and TEV site, SEQ ID NO: 3 (protein)
chain: MVDHHHHHHENLYFQGMPEESSPRRTPQSIPYQDLPHLVNADGQYLFCRYWKPTGTPKALIFVSHGAGEHSGRYEELARMLMGLDLLVFAHDHVGHGQSEGERMVVSDFHVFVRDVLQHVDSMQKDYPGLPVFLLGHSMGGAIAILTAAERPGHFAGMVLISPLVLANPESATTFKVLAAKVLNLVLPNLSLGPIDSSVLSRNKTEVDIYNSDPLICRAGLKVCFGIQLLNAVSRVERALPKLTVPFLLLQGSADRLCDSKGAYLLMELAKSQDKTLKIYEGAYHVLHKELPEVTNSVFHEINMWVSQRTATAGTASPP
modifications: N-terminal His tag and TEV site; Human
B3: mut-MGLL 1-303, L169S, L176S, K36A, K226A: engineered form of human MGLL, cap plus surface mutations (protein)
chain: B2 chain with K52A, L185S, L192S, K242A
B4: mut-MGLL. 1-303, L169S, L176S, K160A: engineered form of human MGLL, cap plus surface mutations (protein)
chain: B2 chain with K176A, L185S, L192S
B5: mut-MGLL. 1-303, L169S, L176S, K165A: engineered form of human MGLL, cap plus surface mutations (protein)
chain: B2 chain with K181A, L185S, L192S
B6: mut-MGLL 1-303, L169S, L176S, K226A: engineered form of human MGLL, cap plus surface mutations (protein)
chain: B2 chain with L185S, L192S, K242A
B7: mut-MGLL 1-303, L167Q, L171Q: engineered form of human MGLL, cap mutations (protein)
chain: B2 chain with L183Q, L187Q
B8: mut-MGLL. 1-303, L167Q, L174Q: engineered form of human MGLL, cap mutations (protein)
chain: B2 chain with L183Q, L190Q
B9: mut-MGLL 1-303, L169S, L176S, K36A: engineered human MGLL 1-303 L169S, L176S, K36A; SEQ ID NO: 6, SEQ ID NO: 7 after TEV cleavage (protein)
chain: B2 chain with K52A, L185S, L192S
modifications: His tag and TEV site; SEQ ID 7 after TEV cleavage; Human
B10: mut-MGLL 1-303, L171Q: engineered form of human MGLL, cap mutation (protein)
chain: B2 chain with L187Q
B11: mut-MGLL 1-303, L171Q, L174Q: engineered form of human MGLL, cap mutations (protein)
chain: B2 chain with L187Q, L190Q
B12: mut-MGLL 9-303, L169S, L176S: engineered form of human MGLL, cap mutations plus truncation (protein, UniProt Q99685 9-303, looked up, variant L169S L176S)
chain: RTPQSIPYQDLPHLVNADGQYLFCRYWKPTGTPKALIFVSHGAGEHSGRYEELARMLMGLDLLVFAHDHVGHGQSEGERMVVSDFHVFVRDVLQHVDSMQKDYPGLPVFLLGHSMGGAIAILTAAERPGHFAGMVLISPLVLANPESATTFKVLAAKVLNSVLPNLSSGPIDSSVLSRNKTEVDIYNSDPLICRAGLKVCFGIQLLNAVSRVERALPKLTVPFLLLQGSADRLCDSKGAYLLMELAKSQDKTLKIYEGAYHVLHKELPEVTNSVFHEINMWVSQRTATAGTASPP

Key:
MGLL = experiment: Kinetic analysis: hydrolysis of 4-methyl coumarin butyrate (4MC-B) by MGLL constructs; type: biochemical, human; conditions: substrate 4MC-B; 4-5 nM MGLL, 20 mM Pipes pH 7, 150 mM NaCl, 37° C.; average of 2 or 4 separate assays
Excerpt: A small fluorescent substrate, 4-methyl coumarin butyrate (4MC-B) was used to compare the activity of the engineered mutants to the activity of wt-MGLL (hMGLL 1-303) (SEQ ID NO: 3). The catalytic efficiency (kcat/KM) for the hydrolysis of the 4MC-B was similar for wt-MGLL (hMGLL 1-303) (SEQ ID NO: 3) and all MGLL mutants tested (Table 2). A larger more aliphatic fluorescent substrate, Coumarin Arachidonate (C-A), structurally more closely related to the MGLL natural substrate, 2-AG, was used to compare the activity of wt-MGLL (hMGLL 1-303) (SEQ ID NO: 3) to TEV cleaved mut-MGLL (hMGLL 1-303 L169S, L176S) (SEQ ID NO: 5).
The Michaelis-Menten parameters for the hydrolysis of 4-methylcoumarin butyrate (4MC-B) and coumarin arachidonate (C-A) substrate were determined using 4-5 nM of MGLL in 20 mM Pipes pH 7 and 150 mM NaCl at 37° C. The change in fluorescence due to substrate hydrolysis was monitored using excitation/emission wavelengths of 335/440 in a Safire II instrument from Tecan. The hyperbolic rates versus substrate concentration curves for the hydrolysis of 4MC-B were fit to the Michaelis-Menten equation using Excel.

[1] = Size exclusion chromatography of MGLL purified in the absence of detergent (aggregation/monomer); type: physicochemical
Procedure: A pilot purification of wt-MGLL (hMGLL 1-303) (SEQ ID NO: 3), performed in the complete absence of detergent, generated no protein (data not shown). A second purification of wt-MGLL (hMGLL 1-303) (SEQ ID NO: 3) was done with detergent in the lysis buffer only. Frozen cell pellets for wt-MGLL (hMGLL 1-303) (SEQ ID NO: 3) were thawed, resuspended, and lysed in Bugbuster® lysis buffer for 1 hour at 4° C. Bugbuster® lysis buffer is a proprietary lysis buffer from […] that contains detergent. The lysate was clarified by centrifugation at 40,000×g for 1 hr. No detergent was added at this point or during the rest of the purification. From this point forward, the purification protocol and buffers were the same as described below for mut-MGLL. An average of 2.2 mg of wt-MGLL (hMGLL 1-303) (SEQ ID NO: 3) per liter of cell culture was obtained.
Mutant MGLL (mut-MGLL) constructs were purified in the absence of detergent. Frozen cell pellets were thawed and resuspended in buffer A (50 mM Hepes buffer pH 7.5, 400 mM NaCl, 5% glycerol, 0.05% BME, 1× Complete EDTA-free protease inhibitor cocktail tablets (Roche)), dounce homogenized and mechanically lysed with a microfluidizer processor (Microfluidics). The extract was clarified by centrifugation at 40,000×g for 1 hr. The cleared lysate was loaded on a 1 ml His-Trap FF Crude column (GE-Healthcare) at 4° C. using the AktaXpress system. For larger preparations, a 5 ml His-Trap FF Crude column was used. The column was washed with 10-15 column volumes (CV) of buffer A containing 30 mM imidazole and mut-MGLL was eluted with 5 CV of 50 mM Hepes buffer pH 7.5, 400 mM NaCl, 5% glycerol, 0.05% BME, 400 mM imidazole. In most preparations, 30 mM imidazole was included in Buffer A from the beginning of the preparation to reduce non-specific binding on the His-Trap column. […] Fractions were analysed by SDS-PAGE. […] Purification yields were determined by Bradford assay using the protein assay kit from BioRad according to manufacturer's instruction with BSA as a standard (Bradford 1976).

[2] = Thermofluor thermal stability (melting transition) of MGLL; type: physicochemical
Excerpt: The Thermofluor® assay is a powerful tool to screen for small molecule inhibitors interacting with a protein's active site or allosteric site. The assay detects small changes in the intrinsic melting temperature of proteins based on binding of ligands. Compounds that interact preferentially with the native form of the protein will increase the Tm, the temperature at which half of the protein is unfolded (Pantoliano et al. 2001). The technique monitors changes in the fluorescent intensity of dyes such as 1-anilinonaphthalene-8-sulfonic acid (1,8-ANS). The fluorescent dyes are quenched in aqueous environments but increase in fluorescence on binding to the hydrophobic core of denatured proteins.
Thermofluor® assays were conducted to characterize wt-MGLL (hMGLL 1-303) (SEQ ID NO: 3) and mut-MGLL (hMGLL 1-303 L169S, L176S) and evaluate if the MGLL mutants could be used for high-throughput screening using Thermofluor®. Three microliters of protein at a concentration of 0.05 mg/ml in 50 mM Pipes pH 7, 200 mM NaCl, 100 μM 1,8-ANS, and 0.001% Tween was added to pre-dispensed compound plates. Wells were overlaid with silicone oil (1 μL, Fluka, type DC 200) to prevent evaporation. Final compound concentrations varied from 150 to 0.15 μM. Assay plates were heated at a rate of 1° C./min for all experiments over a temperature range sufficient to measure protein unfolding. Fluorescence was measured by continuous illumination with UV light (Hamamatsu LC6) supplied via fiber optic and filtered through a custom band-pass filter (380-400 nm; >60D cutoff). Fluorescence emission was detected by measuring light intensity using a CCD camera (Sensys, Roper Scientific) filtered to detect emission at 500±25 nm, resulting in simultaneous and independent readings of all 384 wells. One or more images were collected at each temperature, and the sum of the pixel intensity in a given area of the assay plate was recorded vs temperature, and fit to standard equations to yield the Tm.

Row | Molecule | Kcat (MGLL) [s⁻¹] | Km (MGLL) [µM] | aggregation by size exclusion chromatography (in words) ([1]; detergent in the lysis buffer only) | aggregation ([1]; size exclusion, purified in the absence of detergent) [%] | quality of the melting transition [2] | Tm (midpoint of the melting transition) ([2]; 0.05 mg/ml protein, 1,8-ANS) [°C]
1 | B1 | 0.433 | 126 |  |  |  | 
2 | B2 | 1.13 | 162 | complete aggregation | 100 | very poor transition | 58
3 | B3 | 0.5 | 123 |  |  |  | 
4 | B4 | 0.5 | 90 |  |  |  | 
5 | B5 | 0.45 | 137 |  |  |  | 
6 | B6 | 0.633 | 110 |  |  |  | 
7 | B7 | 0.983 | 84 |  |  |  | 
8 | B8 | 1.17 | 84 |  |  |  | 
9 | B9 | 0.85 | 124 |  |  |  | 
10 | B10 | 0.85 | 105 |  |  |  | 
11 | B11 | 0.783 | 89 |  |  |  | 
12 | B12 | 0.45 | 88 |  |  |  | 
